Results from the supplement of paper PMC10899765.

Assays:
Settings in all cases: 20 nM; 72 h
MCF10A [1] = assay: one-nucleolus phenotype percent effect (relative to siNT 0% and siNOL11 100%); higher = more cells with one nucleolus (ribosome biogenesis inhibition)
Protocol: (§1)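 After 72 h, cells were fixed and stained with Hoechst and anti-fibrillarin, and nucleoli per nucleus were counted with CellProfiler. Values are plate-adjusted percent effect for the one-nucleolus and 5+ nucleoli phenotypes, normalised to siNT (0%) and to the positive controls siNOL11 or siKIF11 (100%), as the mean of biological triplicates. Percent viability is the nuclei count relative to siNT.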

MCF10A [2] = assay: percent viability (nuclei count relative to siNT); higher = more viable cells
Protocol: as §1

MCF10A [3] = assay: 5+ nucleoli phenotype percent effect (relative to siNT 0% and siKIF11 100%); higher = more cells with five or more nucleoli
Protocol: as §1

Row | Sequence | one-nucleolus phenotype percent effect (MCF10A [1]) [%] | percent viability (MCF10A [2]) [%] | 5+ nucleoli phenotype percent effect (MCF10A [3]) [%]
1 | UCUCCCAACCCUUGUACCAGUG [hsa-miR-150-5p] | -2.57 | 224 | 26.7
2 | CAAAUGAGCUUAAUUUCCUUUU [hsa-miR-1252-3p] | -15.1 | 160 | 37.8
3 | CUUGCCAUCCUGGUCCACUGCAU [hsa-miR-4776-3p] | 25.4 | 20.6 | -38.5
4 | UGUCACUCGGCUCGGCCCACUAC [hsa-miR-668] | -1.34 | 60.6 | -8.26
5 | AAAGUAGCUGUACCAUUUGC [hsa-miR-562] | -28.9 | 83.9 | 57
6 | AGCUGGUGUUGUGAAUCAGGCCG [hsa-miR-138-5p] | 13.5 | 21.6 | -24.6
7 | UUGGAAGCUUGGACCAACUAGCUG [hsa-miR-6079] | 28.7 | 31.5 | -27.8
8 | CAGUGCAAUGUUUUCCUU [hsa-miR-4295] | -33 | 78.5 | 97.9
9 | CCGGGAGAAGGAGGUGGCCUGG [hsa-miR-6746-5p] | -15.9 | 50.3 | 61.4
10 | UCCAGUACAGGUCUCUCAUUUC [hsa-miR-4712-5p] | 11 | 81.3 | -15.1
11 | UUGCCAUACAUAGACUUUAUU [hsa-miR-5590-5p] | 33.6 | 44.8 | -33.2
12 | UUUAACAUGGGGGUACCUGCUG [hsa-miR-302c-5p] | -8.1 | 121 | 22.3
13 | AUCCCACCACUGCCACCAU [hsa-miR-1260b] | -10.3 | 30.7 | 18.9
14 | UUCUGAGCUGAGGACAG [hsa-miR-4303] | -2.54 | 45.5 | -10.7
15 | AGCUGUAAUUAGUCAGUUUUCU [hsa-miR-1537-5p] | -20.9 | 117 | 31.8
16 | AUCACACAAAGGCAACUUUUGU [hsa-miR-377-3p] | -9.96 | 129 | -2.87
17 | GUGUCUGCUUCCUGUGGGA [hsa-miR-632] | 31.3 | 37 | -24.2
18 | GUGCAAAAGUCAUCACGGUU [hsa-miR-548aw] | -0.384 | 57.6 | -29.9
19 | AAGUGCUGUCAUAGCUGAGGUC [hsa-miR-512-3p] | -17.8 | 69.7 | 45.1
20 | UCUGGGGUCUUGGGCCAUC [hsa-miR-7155-5p] | 34.2 | 10.2 | -0.455
21 | AGGCACGGUGUCAGCAGGC [hsa-miR-564] | 11.4 | 67.8 | -12.9
22 | UUAUAAAGCAAUGAGACUGAUU [hsa-miR-340-5p] | 47.7 | 21.9 | -24.6
23 | UCUGGGCACAGGCGGAUGGACAGG [hsa-miR-5189] | 29.3 | 34.5 | -2.97

Row | Sequence | one-nucleolus phenotype percent effect (MCF10A [1]) [%] | percent viability (MCF10A [2]) [%] | 5+ nucleoli phenotype percent effect (MCF10A [3]) [%]
24 | AUAUUACCAUUAGCUCAUCUUU [hsa-miR-556-3p] | -7.76 | 46.5 | -10.1
25 | UGUGAUAUCAUGGUUCCUGGGA [hsa-miR-3689e] | 4.57 | 30.9 | -30.6
26 | AGACACUAUACGAGUCAUAU [hsa-miR-3117-5p] | 0.975 | 120 | 12.6
27 | ACCCCACUCCUGGUACC [hsa-miR-4286] | -13.8 | 48.7 | 39.7
28 | UGGGGGGACAGGAUGAGAGGCUGU [hsa-miR-6795-5p] | 28.6 | 16.8 | -6.99
29 | CAUUGCACUUGUCUCGGUCUGA [hsa-miR-25-3p] | 3.94 | 96.4 | -21.1
30 | UCUGGAUUGAAGAGACGACCCA [hsa-miR-6839-5p] | 2.28 | 36.1 | -12.4
31 | CACCGGGGAUGGCAGAGGGUCG [hsa-miR-4655-5p] | 24.6 | 16.1 | 15
32 | CUAUACGGCCUCCUAGCUUUCC [hsa-let-7e-3p] | -18.7 | 45 | 7.57
33 | CCUGUGCUCCCAGGGCCUCGC [hsa-miR-5008-3p] | -14.5 | 77.3 | 24
34 | UGAGGCUAAUGCACUACUUCAC [hsa-miR-3975] | 38.9 | 15.5 | -22.7
35 | GCAGGCACAGACAGCCCUGGC [hsa-miR-4269] | 43.1 | 30.1 | -29
36 | CCUGAUCCCACAGCCCACCU [hsa-miR-3151-3p] | -1.47 | 66.1 | 2.64
37 | ACUUCACCUGGUCCACUAGCCGU [hsa-miR-412] | -11.5 | 118 | 26
38 | GGGAGUCUACAGCAGGG [hsa-miR-4294] | 24 | 37.7 | -26.3
39 | UUAGAGGCUGGAAUAGAGAUUCU [hsa-miR-6866-5p] | 9.98 | 14.1 | -0.659
40 | UGCCCCACCUGCUGACCACCCUC [hsa-miR-4758-3p] | -20.9 | 76.4 | 31.8
41 | ACUGGACUAGGAGUCAGAAGG [hsa-miR-378i] | 4.21 | 32.1 | -12.9
42 | AGACUUCCCAUUUGAAGGUGGC [hsa-miR-617] | 43.9 | 43.8 | -37.8
43 | CCUAUUCUUGAUUACUUGUUUC [hsa-miR-26a-2-3p] | -7.71 | 138 | 2.15
44 | AGCAAGGCGGCAUCUCUCUGAU [hsa-miR-4708-3p] | 16.1 | 43.7 | -21.8
45 | UCAAUCACUUGGUAAUUGCUGU [hsa-miR-4705] | -19.5 | 53.1 | 38.7
